B1: mNb‐WT (VHH)
VHH: DVQLVESGGGLVQPGGSLRLSCAASGRTFSSYSMGWFRQAPGKEREFVVAISKGGYKYDAVSLEGRFTISRDNAKNTVYLQINSLRPEDTAVYYCASSRAYGSSRLRLADTYEYWGQGTLVTVSS
notes: also in PDB 8IIU (crystal of the protein without label); The 6xHis-labelled form was used for the ELISA; crystals were grown from protein without label; also called model anti‐VEGF nanobody; model nanobody mNb‐WT
B2: Mutant 5 (Q118N mutation) (VHH)
VHH: DVQLVESGGGLVQPGGSLRLSCAASGRTFSSYSMGWFRQAPGKEREFVVAISKGGYKYDAVSLEGRFTISRDNAKNTVYLQINSLRPEDTAVYYCASSRAYGSSRLRLADTYEYWGNGTLVTVSS
notes: as the chain of m1 with Q118N
B3: Mutant 7 (Q14N mutation) (VHH)
VHH: DVQLVESGGGLVNPGGSLRLSCAASGRTFSSYSMGWFRQAPGKEREFVVAISKGGYKYDAVSLEGRFTISRDNAKNTVYLQINSLRPEDTAVYYCASSRAYGSSRLRLADTYEYWGQGTLVTVSS
notes: as the chain of m1 with Q14N; also in PDB 8IJS (crystal of the protein without label)
B4: Mutant 1 (K44A mutation) (VHH)
VHH: DVQLVESGGGLVQPGGSLRLSCAASGRTFSSYSMGWFRQAPGAEREFVVAISKGGYKYDAVSLEGRFTISRDNAKNTVYLQINSLRPEDTAVYYCASSRAYGSSRLRLADTYEYWGQGTLVTVSS
notes: as the chain of m1 with K44A
B5: Mutant 3 (K44A/E45A mutation) (VHH)
VHH: DVQLVESGGGLVQPGGSLRLSCAASGRTFSSYSMGWFRQAPGAAREFVVAISKGGYKYDAVSLEGRFTISRDNAKNTVYLQINSLRPEDTAVYYCASSRAYGSSRLRLADTYEYWGQGTLVTVSS
notes: as the chain of m1 with K44A and E45A
B6: Mutant 6 (S8A mutation) (VHH)
VHH: DVQLVEAGGGLVQPGGSLRLSCAASGRTFSSYSMGWFRQAPGKEREFVVAISKGGYKYDAVSLEGRFTISRDNAKNTVYLQINSLRPEDTAVYYCASSRAYGSSRLRLADTYEYWGQGTLVTVSS
notes: as the chain of m1 with S8A
B7: Mutant 2 (E45A mutation) (VHH)
VHH: DVQLVESGGGLVQPGGSLRLSCAASGRTFSSYSMGWFRQAPGKAREFVVAISKGGYKYDAVSLEGRFTISRDNAKNTVYLQINSLRPEDTAVYYCASSRAYGSSRLRLADTYEYWGQGTLVTVSS
notes: as the chain of m1 with E45A; also in PDB 8IJZ (crystal of the protein without label)
B8: Mutant 4 (Y95F mutation) (VHH)
VHH: DVQLVESGGGLVQPGGSLRLSCAASGRTFSSYSMGWFRQAPGKEREFVVAISKGGYKYDAVSLEGRFTISRDNAKNTVYLQINSLRPEDTAVYFCASSRAYGSSRLRLADTYEYWGQGTLVTVSS
notes: as the chain of m1 with Y95F

Target: T1, recombinant VEGF‐A165 protein (Homo sapiens (assumed), UniProt P15692-4, strain)
T1 construct: also called vascular endothelial growth factor; source: bought: SinoBiological Co. Ltd. (Cat: HPLC‐11066‐HNAH)
Assay: ELISA; VEGF‐A165 coated on high adsorption plates overnight at 4°C; blocked with 5% skim milk; linear gradient of 6xHis-labelled nanobodies, 1 h at 37°C; detected with HRP‐conjugated 6xHis tag antibody, TMB, 450 nm
Conditions: both partners purified

T1 sequence (P15692 whole entry, looked up, change not shown): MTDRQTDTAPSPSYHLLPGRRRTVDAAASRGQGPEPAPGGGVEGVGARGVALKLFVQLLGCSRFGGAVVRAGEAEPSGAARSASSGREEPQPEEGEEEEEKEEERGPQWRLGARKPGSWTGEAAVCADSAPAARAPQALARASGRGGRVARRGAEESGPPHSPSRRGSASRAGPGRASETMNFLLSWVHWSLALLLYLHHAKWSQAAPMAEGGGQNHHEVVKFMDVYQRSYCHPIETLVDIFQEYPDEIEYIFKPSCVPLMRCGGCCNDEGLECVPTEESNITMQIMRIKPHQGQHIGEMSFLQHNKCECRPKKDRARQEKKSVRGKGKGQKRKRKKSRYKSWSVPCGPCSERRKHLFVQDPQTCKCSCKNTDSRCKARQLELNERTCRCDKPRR

Binder | binding result
B1 | binds
B2 | binds
B3 | binds
B4 | binds
B5 | binds
B6 | binds
B7 | binds
B8 | binds
